Data: the nanobody polyreactivity screen of Harvey et al. (2022)

Assay: yeast display, Sf9 membrane polyspecificity reagent, FACS + sequencing; frameworks hold sequencing errors
How it was run: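 Synthetic nanobody libraries on Saccharomyces cerevisiae BJ5465 were galactose-induced for 36–48 hours, stained 1 hour at 4 °C with 10% biotinylated, detergent-solubilized Sf9 membrane reagent and enriched on streptavidin microbeads. FACS then separated cells into low and high (top ~1%) gates by anti-HA (expression) and streptavidin (reagent binding) fluorescence. Genes were colony-PCR amplified, MiSeq 2 × 250 sequenced and CDR-length filtered. A clone's polyreactivity label is that of its gate of origin.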

Row | Sequence | polyreactivity (PSR sort gate)
1 | QVQLVESGGGLVQAGGSLRLSCAASGRIFFDYAMGWYRQAPGKERELGADISYNGGSTNYADSVKGRFTISRDNAKNTVYLQMISLKPEDTAVYYCNRALVPVYDLDYYWGQGTQVTVSS | low polyreactivity
2 | QVQLVESGGGLVQAGGSLRLSCAASGFTFGVNAMGWYRQAPGKERELVAVITSGGNTYYADSVKWRFTISRDNAKNTVYLQMNSLKPEDTAVYYCAAYGRASWERDYWGQGTQVTVSS | low polyreactivity
3 | QVQLVESGGGLVQAGGSLRLSCAASGIIFESNAMGWYRQAPGKERELVAAITGRGGRTYYADSVKGRFTISRDNAKNTVYLQTNSLKPEDTAVYYCAADGLRLVPGYKYDYWGQGTQVTVSS | high polyreactivity
4 | QVQLVESGGGLVQAGGILRLSCAPSGRIISWNPIGLYRQAPGQERELVADITYSGGSTYYADSVKGRFTISRDNAKNTVYLQMNSLKPEDTAVYDCNADPRWYHFEYGYWGQGTQVTVSS | high polyreactivity
5 | QVQVVESGGGLVQAGGSLRLSCGASGSTFQGNAMGWYRPAPGKDRALDAAISRSGGSTYADSVKGRFTISRDNAKNTVYLQMNSLKPADTAVYYCAADALYWIGRMDYWGQGTQVTVSS | low polyreactivity
6 | QVQLVESGGGLVQAGGSLRLICAASGGTFNAYAMGWYRQAPGKERELVATISYSGGSTYYADSEKGRFTISRDNAKNTVYLQMNSLKPEDTAVYYCATDVYDSTPFRFDYWGQGTQVTVSS | low polyreactivity
7 | QVQLVESGGGLVQAGGSLRLSCAASGSIFQSYAMGWYRQAPGKERELVAGISSDGSTYYADSVKGRFTISRDNAKNTVYLQMNSLKPEDTAVYYCAAERWGNPTDYQFWRPYDYWGQGTQVTVSS | low polyreactivity
8 | QVQLVESGGGLVHAGGSLRLSCAASGSIFYPYAMGWYRKAPGKERELVAAISRSGGRTYYADSVKGRFTISRDNAKNTVYLQMNSLKPEDTAVYYCNAYYPGNGPRSTSTRYEYWGQGTQVTVSS | high polyreactivity
9 | QVQLVESGGGLVQAGGSLRLSCAASGFIFSYYAMGWYRQAPGKERELVAAISRNGGRTYYADSVKGRFTISRDNAKNTVYLQMNSLKPEDTAVYYCAATTYRTSSYIRYGSPKHDDYWGQGTQVTVSS | high polyreactivity
10 | QVQLVESGGGLVQAGGSLRLSCPASGYILHKYAMGSYRQAPGKERELVATISGGGGSTYYADSVKGRFTISRDNAKNTVYLQMNSLKPEDTAVYYCAIEYPWLPRSYEYGGQGTQVTVSS | low polyreactivity
11 | QVQLVESGRGLVQAGGSLRISCAASGLILYTYAMGWYRQAPGKERELVAAITKSGGRTYYADSVKGRFTISRDNAKNTVYLQMNSLKPEDTAVYDCAARPYSRPYSFGFYYWGQGTQVTVSS | high polyreactivity
12 | QVQLVESGGGLVQAGGSLRLSSAASGSIFAYYAMGWSRQAPGKEWELVAAITSGGNTKYADSVKGRFTISRDNAKNTVYLQMNCLKPEDTAVYYCASYRTRALWGQGYGYWGHGTQVTVSS | high polyreactivity
13 | QVQLVESGGGLVQAGGSLRLSCAASGSTLRAYAMGWSRQAPGKERELVAAINVSSGGTYYADSVKGRFTISRDNAKNTVYLQMNSLKPEDTAVYYCAARARWAGLRYTRYYYWGQGTQVTVSS | high polyreactivity
14 | QVQHVESGGGLVQAGGSLRLSCAASGSIFLIYAMGWYRPAPGKERELVAAITGGGTTNYADSVKGRFTISRDNAKHTVYFQMNSLKPEDTAVYYCNTLYLVYLYWTSPTPSDLFDYWGQGTQVTVSS | low polyreactivity
15 | QVQLVESGGGLVQAGGSLRLSCAASGYTFYQNAMGWYRQAPGKERELVAAITFRTGSTYYADSVKGRFTISRDNAKNTVYLQMNSLKPEDTAVYYCAATRFLRYWWYGYWGQGTQVTVSS | low polyreactivity
16 | QLQLQESGGGLVQAGGSLRLSCAASGSNSRYYDMGWYRQAAGKEREFVAGISGGAITYYEDSVKGRFTISRDNANITVYVQMNSLKPEDTAVYYCAADTGDYQYHSYWGQGTQVTVSS | low polyreactivity

Row | Sequence | polyreactivity (PSR sort gate)
17 | QVQLVESGGGLVQAGGSLRLSCAASGSTFQANDMGWYRQAPGKERELVAAISTGGSSTYYADSVKGRFTISRDNAKNTVYLQMNCLKPEDTAVYYCAVDGLGGREGYWGQGTQVTVSS | high polyreactivity
18 | QVQLVESGGCLVQAGGSLRLSCAASGGTFHRYAMGGYRQAPGKERELVAAISGSGASTYYADSVKGRFTISRDNAKNTVYLQMNSLKPEDTAVYYCNAYSYPYWYRYYYWGQGTQVTVSS | high polyreactivity
19 | QVQLVESGGGLVQAGGSLRLICDASGSIFRYYAMGWYRQAPGKERELVARISWRAGSTYADSVKGRFTISRDYAKNTVYLQINSQKPEDTAVYYCNADAHKDSWVGTSEYEYWGQGTQVTVSS | high polyreactivity
20 | QVQLQESGGGLVQAGGSLRLSCAASGTITVLYKMVWFRQAPGKEREFVASINYGTSTYYADSVKGRFTVSRDSAKNTVYLQMNSLKPEDTAVYYCAAAYRWQDVYRYWGQGTQVTVSS | low polyreactivity
21 | QVLLVESGGGLVQAGGSLRLSCAASGSTFNYNAMGWYRQAPGKERELVAVITSGGRTNYADSVKGRFTISRDNAKNTVYLQMNSLKPEDTAVYSCNAEHVSYHFNLKYSGESWGQGTQVTVSS | low polyreactivity
22 | QVQLVESGGGLVQAGGSLRLSCSASGNIFFGYAMGLYRQAPGKERQFVASITKIGGSTYYADSVKGRFTISRDNAKNTVYLQLNSLKPEDTAVYYCAARLGHSVNPGGERWDVVYWGQGTQVTVSS | low polyreactivity
23 | QVQLVESGGGLVQAGGSLRLSCAASGRIFQHNTMGWYRQAPGKERDFVAAIRRSGGSTYYADSVKGRFTISRDNAKNTVYLQMNSLKPEDTAVYYCAARDYPTGTRRWGGGDSWGQGTEVTVSS | low polyreactivity
24 | QVQLVESGGGLVQAGGSLRLSCAASGITFSQYAMGWYRQAPGTERELVAAISGSGGDTYYADSVKGRFTISRDNAKNTVYLQMNSLKPEDTAVYYCNADYESVYYEDYDYWGQGTQVTVSS | low polyreactivity
25 | QVQLVESGGGLVQAGGSLRLSCAASGSIFDVYAMGWYRQAPGQERELVAAISRGDSTNYADSVKGRFTISRDNAKNTVYLQMNSLKPEDTAVYYCAADCYYWGSGWRYDSWGQGTQVTVSS | low polyreactivity
26 | QVQLVESGGGLDQAGGSLRLSCAASGSIFGSYTLGGYRQAPGKERELVAVINWSGDRTYYADSVKGRFTISRDNAKNTVYLQMNSLKPEDTAVYYCAARERAAYSRIRYNYWGQGTQVTVSS | high polyreactivity
27 | QVQLLESGGGLVQAGGSLRLSCAASGITFSQYAMGWYRQAPGKERELVAAISWSGGSTYYANSVKGRFTISRDNAKNTVYLQMNSLKPEDTAVYYCAAVPVHTGSLYWGFTTGYDYWGQGTQVTVSS | low polyreactivity
28 | QVQLVETGGGLVQAGGSLRLSCAASGLTFRGYAKGWYIQAPGKERELVARITIGSSTNYADSVKGRFTISRDIAKNTVYLQMNSLKQEDSAVYYCAADKPGQFTPSYNKIYDYWGQGTQVTVSS | low polyreactivity
29 | QVHLVESGGGLVQAGGSLRLSCAATGLTFHKYAMGWYRQSPGKERELVAAISSSGGSTYYADSVKGRFTISRDNAKNTVYLQMNSLKPEDTAVYYCATRLPYYTHAGYNYWGQGTQVTVSS | high polyreactivity
30 | QVQLVESGGGLVQAGGSLRLSCAASGGTFRTYVMGWYRQAPGKERELVAAISVSGGRTYYADSVKGRFTISRDNAKTTVYLQMNSLKPEDTAVYYCAAYWHGFFKYWEMGYWGQGTQVTVSS | high polyreactivity
31 | QVQLVESGGGLVQAGVSLRLSCAASGRIFPSYAMGWYRQAPGKEREMVAAITSSDSTYYADSVKGRFTISRDNAKNTVYLQMNSLKPDDTAVYYCAAAYSYSGWWWFGYWGQGTQVTVSS | high polyreactivity
